# Test results taken from publication PMC11532494 (Nature Communications, 2024).
# Several values for one entry are separate records, joined by “and”; a condition that tells them apart may be missing. Equal entries are not always repeated. Where two headings read alike, the source gives them in different places. No end group written: not given here. *: point of attachment. AMC = Cc1cc(=O)oc2cc(N*)ccc12
# Assays:
# KpHdaH (1b) = KpHdaH (1b) (Klebsiella pneumoniae, UniProt A0A377Z5F6); type: biochemical; settings: for RFU means, KpHdaH (1b) / RFU*2 means, KpHdaH (1b): means of two measurements; for [AMC] (nM), KpHdaH (1b), means / [AMC] (nM), KpHdaH (1b): substrate screening; for [AMC] (nM), KpHdaH (1b), means: mean of two measurements
# Controls [1] = type: biochemical
# LpApaH (3) = LpApaH (3) (Legionella pneumophila, UniProt A0A2S6EWV0); type: biochemical
# LcApaH (3) = LcApaH (3) (Legionella cherrii, UniProt A0A0W0SGS1); type: biochemical
# VcHdaH (5b) = type: biochemical, Vibrio cholerae; settings: for RFU means, VcHdaH (5b) / RFU*2 means, VcHdaH (5b): means of two measurements; for [AMC] (nM), VcHdaH (5b), means: substrate screening, mean of two measurements
# RwDmhA (1b) = RwDmhA (1b) (Rhizorhabdus wittichii, UniProt A0A067XIQ6); type: biochemical
# PsApaH (4) = PsApaH (4) (Pseudomonas sp. M30-35, UniProt A0A1Y0KY79); type: biochemical; settings: for RFU means, PsApaH (4) / RFU*2 means, PsApaH (4): means of two measurements; for [AMC] (nM), PsApaH (4), means / [AMC] (nM), PsApaH (4): substrate screening; for [AMC] (nM), PsApaH (4), means: mean of two measurements
# Protocol: (§1) Experiments with SIRT2 and SIRT5 were supplemented with NAD^+ (500 µM). Thereafter, a solution of trypsin (25 µL, 5.0 mg/mL; final concentration of 2.5 mg/mL) was added, and the development of the assay was allowed to proceed for 90 min at room temperature before fluorescence analysis. […] To this end, a single category is given to all conversions >48% on the heatmap. […] For the H4-derived peptide LGKbio no positive control was available.
# VsHdaH (1b) = type: biochemical, Vibrio sp.; settings: for RFU means, VsHdaH (1b) / RFU*2 means, VsHdaH (1b): means of two measurements; for [AMC] (nM), VsHdaH (1b), means / [AMC] (nM), VsHdaH (1b): substrate screening; for [AMC] (nM), VsHdaH (1b), means: mean of two measurements
# BsAcuC (2c) = target: T1, BsAcuC (2c) (Bacillus subtilis, UniProt P39067); experiment: Substrate screening assay (acyl-peptide-AMC); type: biochemical; settings: for RFU means, BsAcuC (2c) / RFU*2 means, BsAcuC (2c): means of two measurements; for [AMC] (nM), BsAcuC (2c), means: substrate screening, mean of two measurements; for RFU*2, BsAcuC (2c): two measurements, single values
# T1 construct: made in house; host or cells: E. coli BL21 (DE3)
# T1 sequence (P39067 1-387): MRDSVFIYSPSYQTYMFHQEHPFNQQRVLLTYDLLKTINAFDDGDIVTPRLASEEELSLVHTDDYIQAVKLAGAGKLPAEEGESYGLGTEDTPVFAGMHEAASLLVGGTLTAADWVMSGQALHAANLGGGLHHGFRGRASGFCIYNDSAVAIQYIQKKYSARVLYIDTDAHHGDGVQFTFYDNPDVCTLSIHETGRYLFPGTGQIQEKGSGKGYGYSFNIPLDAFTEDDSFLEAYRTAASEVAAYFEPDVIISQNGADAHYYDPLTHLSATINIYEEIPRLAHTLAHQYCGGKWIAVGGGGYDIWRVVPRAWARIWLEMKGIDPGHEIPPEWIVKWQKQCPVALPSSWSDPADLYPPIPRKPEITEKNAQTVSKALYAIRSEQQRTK
# Protocol: as §1
# Controls [2] = type: biochemical; remark: listed apart in the source
# RsPrpH (1b) = experiment: Substrate screening assay (acyl-peptide-AMC); type: biochemical, Rhizorhabdus sp.
# [3] = two measurements, single values
# [4] = substrate screening, mean of two measurements
# [5] = substrate screening, measurement 1 of two
# [6] = substrate screening, measurement 2 of two
substance,measurement,setting,value
"QPKKdec (QPKK-{AMC}; not fully specified (residue 4); printed as QPKKdec; also: decanoyl-lysine (which Lys not given here); UniProt P04637 317-320, looked up, fragment)","RFU means, KpHdaH (1b)",KpHdaH (1b),58 RFU
same,"RFU*2 means, KpHdaH (1b)",KpHdaH (1b),116 RFU*2
same,"[AMC] (nM), KpHdaH (1b), means",KpHdaH (1b),56.64 nM
same,"[AMC] (nM), KpHdaH (1b)",KpHdaH (1b); measurement 1 of two,48.83 nM
same,"[AMC] (nM), KpHdaH (1b)",KpHdaH (1b); measurement 2 of two,64.45 nM
same,"RFU*2, KpHdaH (1b)",KpHdaH (1b); [3],100 RFU*2 and 132 RFU*2
same,"RFU, KpHdaH (1b)",KpHdaH (1b); [3],50 RFU and 66 RFU
same,"RFU means, controls",Controls [1],16210.5 RFU
same,"RFU*2, controls",Controls [1],29980 RFU*2 and 34862 RFU*2
same,"RFU*2 means, controls",Controls [1],32421 RFU*2
same,"RFU, controls",Controls [1],14990 RFU and 17431 RFU
same,"RFU means, LpApaH (3)",LpApaH (3),175 RFU
same,"RFU*2, LpApaH (3)",LpApaH (3),316 RFU*2 and 384 RFU*2
same,"RFU*2 means, LpApaH (3)",LpApaH (3),350 RFU*2
same,"RFU, LpApaH (3)",LpApaH (3),158 RFU and 192 RFU
same,"[AMC] (nM), LpApaH (3)",LpApaH (3),154.30 nM and 187.50 nM
same,"[AMC] (nM), LpApaH (3), means",LpApaH (3),170.90 nM
same,"RFU means, LcApaH (3)",LcApaH (3),167 RFU
same,"RFU*2, LcApaH (3)",LcApaH (3),294 RFU*2 and 374 RFU*2
same,"RFU*2 means, LcApaH (3)",LcApaH (3),334 RFU*2
same,"RFU, LcApaH (3)",LcApaH (3),147 RFU and 187 RFU
same,"[AMC] (nM), LcApaH (3)",LcApaH (3),143.55 nM and 182.62 nM
same,"[AMC] (nM), LcApaH (3), means",LcApaH (3),163.09 nM
same,"RFU means, VcHdaH (5b)",VcHdaH (5b),53.5 RFU
same,"RFU*2 means, VcHdaH (5b)",VcHdaH (5b),107 RFU*2
same,"[AMC] (nM), VcHdaH (5b), means",VcHdaH (5b),52.25 nM
same,"RFU means, RwDmhA (1b)",RwDmhA (1b); means of two measurements,33 RFU
same,"RFU*2 means, RwDmhA (1b)",RwDmhA (1b); means of two measurements,66 RFU*2
same,"[AMC] (nM), RwDmhA (1b), means",RwDmhA (1b); [4],32.23 nM
same,"[AMC] (nM), RwDmhA (1b)",RwDmhA (1b); [5],18.55 nM
same,"[AMC] (nM), RwDmhA (1b)",RwDmhA (1b); [6],45.90 nM
same,"RFU means, PsApaH (4)",PsApaH (4),97 RFU
same,"RFU*2 means, PsApaH (4)",PsApaH (4),194 RFU*2
same,"[AMC] (nM), PsApaH (4), means",PsApaH (4),94.73 nM
same,"[AMC] (nM), PsApaH (4)",PsApaH (4); measurement 1 of two,91.80 nM
same,"[AMC] (nM), PsApaH (4)",PsApaH (4); measurement 2 of two,97.66 nM
same,"RFU*2, PsApaH (4)",PsApaH (4); [3],200 RFU*2 and 188 RFU*2
same,"RFU, PsApaH (4)",PsApaH (4); [3],100 RFU and 94 RFU
same,"RFU means, VsHdaH (1b)",VsHdaH (1b),82 RFU
same,"RFU*2 means, VsHdaH (1b)",VsHdaH (1b),164 RFU*2
same,"[AMC] (nM), VsHdaH (1b), means",VsHdaH (1b),80.08 nM
same,"[AMC] (nM), VsHdaH (1b)",VsHdaH (1b); measurement 1 of two,61.52 nM
same,"[AMC] (nM), VsHdaH (1b)",VsHdaH (1b); measurement 2 of two,98.63 nM
same,"RFU*2, VsHdaH (1b)",VsHdaH (1b); [3],126 RFU*2 and 202 RFU*2
same,"RFU, VsHdaH (1b)",VsHdaH (1b); [3],63 RFU and 101 RFU
same,"RFU means, BsAcuC (2c)",BsAcuC (2c),1377 RFU
same,"RFU*2 means, BsAcuC (2c)",BsAcuC (2c),2754 RFU*2
same,"[AMC] (nM), BsAcuC (2c), means",BsAcuC (2c),1344.73 nM
same,"RFU*2, BsAcuC (2c)",BsAcuC (2c),3196 RFU*2 and 2312 RFU*2
same,"[AMC] (nM), controls, means",Controls [2],15830.57 nM
same,"RFU means, RsPrpH (1b)",RsPrpH (1b); means of two measurements,37.5 RFU
same,"RFU*2 means, RsPrpH (1b)",RsPrpH (1b); means of two measurements,75 RFU*2
same,"[AMC] (nM), RsPrpH (1b), means",RsPrpH (1b); [4],36.62 nM
same,"[AMC] (nM), RsPrpH (1b)",RsPrpH (1b); [5],31.25 nM
same,"[AMC] (nM), RsPrpH (1b)",RsPrpH (1b); [6],41.99 nM
same,"RFU*2, RsPrpH (1b)",RsPrpH (1b); [3],64 RFU*2 and 86 RFU*2
same,"RFU, RsPrpH (1b)",RsPrpH (1b); [3],32 RFU and 43 RFU
"QPKKhex (QPKK-{AMC}; not fully specified (residue 4); printed as QPKKhex; also: hexanoyl-lysine (which Lys not given here); UniProt P04637 317-320, looked up, fragment)","RFU means, KpHdaH (1b)",KpHdaH (1b),92 RFU
same,"RFU*2 means, KpHdaH (1b)",KpHdaH (1b),184 RFU*2
same,"[AMC] (nM), KpHdaH (1b), means",KpHdaH (1b),89.84 nM
same,"[AMC] (nM), KpHdaH (1b)",KpHdaH (1b); measurement 1 of two,166.02 nM
same,"[AMC] (nM), KpHdaH (1b)",KpHdaH (1b); measurement 2 of two,13.67 nM
same,"RFU means, controls",Controls [1],3600.5 RFU
same,"RFU*2, controls",Controls [1],6176 RFU*2 and 8226 RFU*2
same,"RFU*2 means, controls",Controls [1],7201 RFU*2
same,"RFU, controls",Controls [1],3088 RFU and 4113 RFU
same,"RFU means, LpApaH (3)",LpApaH (3),57.5 RFU
same,"RFU*2 means, LpApaH (3)",LpApaH (3),115 RFU*2
same,"[AMC] (nM), LpApaH (3), means",LpApaH (3),56.15 nM
same,"RFU means, LcApaH (3)",LcApaH (3),70 RFU
same,"RFU*2 means, LcApaH (3)",LcApaH (3),140 RFU*2
same,"[AMC] (nM), LcApaH (3), means",LcApaH (3),68.36 nM
same,"RFU means, VcHdaH (5b)",VcHdaH (5b),50.5 RFU
same,"RFU*2 means, VcHdaH (5b)",VcHdaH (5b),101 RFU*2
same,"[AMC] (nM), VcHdaH (5b), means",VcHdaH (5b),49.32 nM
same,"RFU means, RwDmhA (1b)",RwDmhA (1b),55 RFU
same,"RFU*2 means, RwDmhA (1b)",RwDmhA (1b),110 RFU*2
same,"[AMC] (nM), RwDmhA (1b), means",RwDmhA (1b),53.71 nM
same,"RFU means, PsApaH (4)",PsApaH (4),94.5 RFU
same,"RFU*2 means, PsApaH (4)",PsApaH (4),189 RFU*2
same,"[AMC] (nM), PsApaH (4), means",PsApaH (4),92.29 nM
same,"[AMC] (nM), PsApaH (4)",PsApaH (4); measurement 1 of two,125.00 nM
same,"[AMC] (nM), PsApaH (4)",PsApaH (4); measurement 2 of two,59.57 nM
same,"RFU means, VsHdaH (1b)",VsHdaH (1b),66.5 RFU
same,"RFU*2 means, VsHdaH (1b)",VsHdaH (1b),133 RFU*2
same,"[AMC] (nM), VsHdaH (1b), means",VsHdaH (1b),64.94 nM
same,"[AMC] (nM), VsHdaH (1b)",VsHdaH (1b); measurement 1 of two,35.16 nM
same,"[AMC] (nM), VsHdaH (1b)",VsHdaH (1b); measurement 2 of two,94.73 nM
same,"RFU means, BsAcuC (2c)",BsAcuC (2c),1487.5 RFU
same,"RFU*2 means, BsAcuC (2c)",BsAcuC (2c),2975 RFU*2
same,"[AMC] (nM), BsAcuC (2c), means",BsAcuC (2c),1452.64 nM
same,"RFU*2, BsAcuC (2c)",BsAcuC (2c),3440 RFU*2 and 2510 RFU*2
same,"[AMC] (nM), controls, means",Controls [2],3516.11 nM
same,"RFU means, RsPrpH (1b)",RsPrpH (1b),-23.5 RFU
same,"RFU*2 means, RsPrpH (1b)",RsPrpH (1b),-47 RFU*2
same,"[AMC] (nM), RsPrpH (1b), means",RsPrpH (1b),-22.95 nM
